Experimental findings from article PMC4342030 (Molecular Biology of the Cell, 2015) are described below.

For experiment [1], the target named is T1, purified APPL2 after cleavage of GST (mouse, UniProt Q8K3G9 1-662).
T1 sequence (looked up): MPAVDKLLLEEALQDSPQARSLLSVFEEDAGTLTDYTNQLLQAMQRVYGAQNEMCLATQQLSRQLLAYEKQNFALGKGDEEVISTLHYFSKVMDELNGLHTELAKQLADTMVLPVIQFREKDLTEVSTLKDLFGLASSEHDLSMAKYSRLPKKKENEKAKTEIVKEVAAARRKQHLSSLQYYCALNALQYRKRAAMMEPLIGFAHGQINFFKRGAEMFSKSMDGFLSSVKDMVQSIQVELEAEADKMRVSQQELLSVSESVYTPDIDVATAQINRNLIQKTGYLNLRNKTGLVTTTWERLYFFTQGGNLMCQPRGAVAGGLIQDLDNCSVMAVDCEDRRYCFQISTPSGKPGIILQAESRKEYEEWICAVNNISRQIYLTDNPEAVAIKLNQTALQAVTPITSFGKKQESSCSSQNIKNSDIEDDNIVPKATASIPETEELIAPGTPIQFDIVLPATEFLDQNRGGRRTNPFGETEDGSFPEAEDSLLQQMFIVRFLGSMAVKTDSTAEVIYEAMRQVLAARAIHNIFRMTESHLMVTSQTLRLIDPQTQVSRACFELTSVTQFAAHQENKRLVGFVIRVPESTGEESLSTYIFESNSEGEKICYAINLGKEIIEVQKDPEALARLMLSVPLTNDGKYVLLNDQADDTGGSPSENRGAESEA
The experiment in a line: pull-down.

A further experiment addresses T2, GFP-Rab31 (mouse, UniProt Q921E2 1-195).
T2 sequence (looked up): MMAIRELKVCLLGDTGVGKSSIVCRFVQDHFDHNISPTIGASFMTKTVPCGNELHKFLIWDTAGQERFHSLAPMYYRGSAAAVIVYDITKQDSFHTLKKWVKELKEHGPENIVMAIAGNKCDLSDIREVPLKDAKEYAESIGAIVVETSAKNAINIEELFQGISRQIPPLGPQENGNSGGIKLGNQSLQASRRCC
Briefly: co-IP.

B1: GST-Rab31 (natural protein, mouse, UniProt Q921E2 1-195, looked up)
chain: T2 sequence (looked up)
Regarding B1, in experiment [1], the binding result was “binds”.

B2: APPL2 (adaptor protein, phosphotyrosine interaction, PH domain, and leucine zipper–containing 2) (natural protein, mouse (endogenous in RAW 264.7), UniProt Q8K3G9 1-662, looked up)
chain: T1 sequence (looked up)
Regarding B2, the “fold preference over GFP-Rab5a” value with GFP-Rab31 was determined as 3 fold.
